Residue numbers refer to the chain shown, from its start. Names and notes keep the numbering of the source.
B1: TetRrev25/43: revTetR(BD) L17F E19- G24G (protein)
chain: MSRLDKSKVINSALELFNVGIEGLTTRKLAQKLGVEQPTLYWHVKNKRALLDALAVEILARHHDYSLPAAGESWQSFLRNNAMSFRRALLRYRDGAKVHLGTRPDEKQYDTVETQLRFMTENGFSLRDGLYAISAVSHFTLGAVLEQQEHTAALTDRPAAPDENLPPLLREALQIMDSDDGEQAFLHGLESLIRGFEVQLTALLQIV
modifications: Modified tetracycline repressor
notes: revTetR(BD) L17F E19- G24G
B2: TetRrev6-33: revTetR(BD) A97T K98R V99G (protein)
chain: MSRLDKSKVINSALELLNEVGIEGLTTRKLAQKLGVEQPTLYWHVKNKRALLDALAVEILARHHDYSLPAAGESWQSFLRNNAMSFRRALLRYRDGTRGHLGTRPDEKQYDTVETQLRFMTENGFSLRDGLYAISAVSHFTLGAVLEQQEHTAALTDRPAAPDENLPPLLREALQIMDSDDGEQAFLHGLESLIRGFEVQLTALLQIV
modifications: Modified tetracycline repressor
notes: revTetR(BD) A97T K98R V99G
B3: TetRrev3/38: revTetR(BD) L17H I22F E23G (protein)
chain: B2 chain with L17H, I22F, E23G, T97A, R98K, G99V
modifications: Modified tetracycline repressor
notes: revTetR(BD) L17H I22F E23G
B4: TetRrev6-38: revTetR(BD) Y93H G96W K98Q V99G (protein)
chain: B2 chain with Y93H, G96W, T97A, R98Q
modifications: Modified tetracycline repressor
notes: revTetR(BD) Y93H G96W K98Q V99G
B5: TetRrev6-50: revTetR(BD) V99G (protein)
chain: B2 chain with T97A, R98K
modifications: Modified tetracycline repressor
notes: revTetR(BD) V99G
B6: TetRrev4/6-5: revTetR(BD) A54S V99R (protein)
chain: B2 chain with A54S, T97A, R98K, G99R
modifications: Modified tetracycline repressor
notes: revTetR(BD) A54S V99R
B7: TetRrev4/6-24: revTetR(BD) A61T V99R (protein)
chain: B2 chain with A61T, T97A, R98K, G99R
modifications: Modified tetracycline repressor
notes: revTetR(BD) A61T V99R
B8: TetRrev28/8: revTetR(BD) L14S N18Y I22F L25L (protein)
chain: B2 chain with L14S, N18Y, I22F, T97A, R98K, G99V
modifications: Modified tetracycline repressor
notes: revTetR(BD) L14S N18Y I22F L25L
B9: TetRrev4/6-27: revTetR(BD) V99R (protein)
chain: B2 chain with T97A, R98K, G99R
modifications: Modified tetracycline repressor
notes: revTetR(BD) V99R
B10: TetRrev4/6-15: revTetR(BD) A56S I59A L60W V99V (protein)
chain: B2 chain with A56S, I59A, L60W, T97A, R98K, G99V
modifications: Modified tetracycline repressor
notes: revTetR(BD) A56S I59A L60W V99V
B11: TetRrev6-51: revTetR(BD) A97T V99G (protein)
chain: B2 chain with R98K
modifications: Modified tetracycline repressor
notes: revTetR(BD) A97T V99G
B12: TetRrev22/5: revTetR(BD) E15V L17A E19D (protein)
chain: B2 chain with E15V, L17A, E19D, T97A, R98K, G99V
modifications: Modified tetracycline repressor
notes: revTetR(BD) E15V L17A E19D
B13: TetRrev4/6-6: revTetR(BD) D53Y V57V A61P (protein)
chain: B2 chain with D53Y, A61P, T97A, R98K, G99V
modifications: Modified tetracycline repressor
notes: revTetR(BD) D53Y V57V A61P
B14: TetRrev4/6-3: revTetR(BD) D95A V99G (protein)
chain: B2 chain with D95A, T97A, R98K
modifications: Modified tetracycline repressor
notes: revTetR(BD) D95A V99G
B15: TetRrev6-53: revTetR(BD) A97P K98R V99D (protein)
chain: B2 chain with T97P, G99D
modifications: Modified tetracycline repressor
notes: revTetR(BD) A97P K98R V99D
B16: TetRrev6-34: revTetR(BD) R94L D95A H100 (protein)
chain: B2 chain with R94L, D95A, T97A, R98K, G99V, H100Q
modifications: H100 change unspecified; Modified tetracycline repressor
notes: revTetR(BD) R94L D95A H100
B17: TetRrev1/34: revTetR(BD) L17S E23K (protein)
chain: B2 chain with L17S, E23K, T97A, R98K, G99V
modifications: Modified tetracycline repressor
notes: revTetR(BD) L17S E23K
B18: TetRrev6-35: revTetR(BD) D95Y V99E (protein)
chain: B2 chain with D95Y, T97A, R98K, G99E
modifications: Modified tetracycline repressor
notes: revTetR(BD) D95Y V99E
B19: TetRrev6-37-1: revTetR(BD) G96R A97S V99L (protein)
chain: B2 chain with G96R, T97S, R98K, G99L
modifications: Modified tetracycline repressor
notes: revTetR(BD) G96R A97S V99L
B20: TetRrev4/6-4: revTetR(BD) D95A V99G V57V A61G (protein)
chain: B2 chain with A61G, D95A, T97A, R98K
modifications: Modified tetracycline repressor
notes: revTetR(BD) D95A V99G V57V A61G
B21: TetRrev28/16: revTetR(BD) L14L E15A L17G L25V (protein)
chain: B2 chain with E15A, L17G, L25V, T97A, R98K, G99V
modifications: Modified tetracycline repressor
notes: revTetR(BD) L14L E15A L17G L25V
B22: TetRrev4/6-10: revTetR(BD) A56S V99E (protein)
chain: B2 chain with A56S, T97A, R98K, G99E
modifications: Modified tetracycline repressor
notes: revTetR(BD) A56S V99E
B23: TetRrev4/6-17: revTetR(BD) G99R V99L L101I (protein)
chain: B2 chain with G96R, T97A, R98K, G99L, L101I
modifications: Modified tetracycline repressor
notes: revTetR(BD) G99R V99L L101I
B24: TetRrev4/6-7: revTetR(BD) L55L L60V A97V V99G (protein)
chain: B2 chain with L60V, T97V, R98K
modifications: Modified tetracycline repressor
notes: revTetR(BD) L55L L60V A97V V99G
B25: TetRrev19/48: revTetR(BD) N18K E19D V20L I22N E23A (protein)
chain: B2 chain with N18K, E19D, V20L, I22N, E23A, T97A, R98K, G99V
modifications: Modified tetracycline repressor
notes: revTetR(BD) N18K E19D V20L I22N E23A
B26: TetRrev4/6-25: revTetR(BD) I59S L60L R62G D95A V99L (protein)
chain: B2 chain with I59S, R62G, D95A, T97A, R98K, G99L
modifications: Modified tetracycline repressor
notes: revTetR(BD) I59S L60L R62G D95A V99L
B27: TetRrev6-54: revTetR(BD) Y93F D95N V99F (protein)
chain: B2 chain with Y93F, D95N, T97A, R98K, G99F
modifications: Modified tetracycline repressor
notes: revTetR(BD) Y93F D95N V99F

Each molecule was assayed on tet operator sequence (assay: β-galactosidase activity of a tetracycline-regulated promoter in transformed E. coli with revTetR, in the presence and absence of anhydrotetracycline (atc)). Conditions: RevTetR isolate cultured in the absence of anhydrotetracycline (ATC).
Type: cell-based, Escherichia coli
Outline: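 TetR(BD) chimera mutants (TetR(B) residues 1–50, TetR(D) 51–208) expressed in E. coli regulating a tet operator-controlled lacZ. β-Galactosidase measured in Miller units at 28 °C and 37 °C with and without anhydrotetracycline; reported as percent of maximal expression without Tet repressor.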

Row | Molecule | β-Galactosidase Activity, Cultured Without ATC
1 | B1 | 99.1241
2 | B2 | 108.964
3 | B3 | 97.043
4 | B4 | 96.194
5 | B5 | 60.464
6 | B6 | 97.92
7 | B7 | 95.596
8 | B8 | 98.6289
9 | B9 | 108
10 | B10 | 66.054
11 | B11 | 93.974
12 | B12 | 92.312
13 | B13 | 67.879
14 | B14 | 69.291
15 | B15 | 107.107
16 | B16 | 85.725
17 | B17 | 79.3141
18 | B18 | 74.8797
19 | B19 | 55.277
20 | B20 | 96.491
21 | B21 | 96.3269
22 | B22 | 97.964
23 | B23 | 54.403
24 | B24 | 86.036
25 | B25 | 79.9581
26 | B26 | 102.926
27 | B27 | 6.393

Same assay, conditions: RevTetR isolate cultured in the presence of anhydrotetracycline (ATC)

Row | Molecule | β-Galactosidase Activity, Cultured With ATC
28 | B1 | 1.7535
29 | B2 | 2.984
30 | B3 | 1.8287
31 | B4 | 46.91
32 | B5 | 2.469
33 | B6 | 5.7
34 | B7 | 2.428
35 | B8 | 4.4123
36 | B9 | 49
37 | B10 | 7.647
38 | B11 | 4.499
39 | B12 | 0.9755
40 | B13 | 3.197
41 | B14 | 0.878
42 | B15 | 27.918
43 | B16 | 40.254
44 | B17 | 0.9226
45 | B18 | 7.0255
46 | B19 | 20.04
47 | B20 | 1.639
48 | B21 | 0.9453
49 | B22 | 6.149
50 | B23 | 2.601
51 | B24 | 2.151
52 | B25 | 1.1143
53 | B26 | 3.433
54 | B27 | 1.268
